In patent US9150659B2, “Anti-tace antibody molecules and their uses” (priority 2011, dated 2015):

T1: Recombinant human ADAM10 ectodomain (Homo sapiens, UniProt O14672)
T1 construct: Recombinant human ADAM10 ectodomain
T1 sequence (O14672 214-672 limits assumed): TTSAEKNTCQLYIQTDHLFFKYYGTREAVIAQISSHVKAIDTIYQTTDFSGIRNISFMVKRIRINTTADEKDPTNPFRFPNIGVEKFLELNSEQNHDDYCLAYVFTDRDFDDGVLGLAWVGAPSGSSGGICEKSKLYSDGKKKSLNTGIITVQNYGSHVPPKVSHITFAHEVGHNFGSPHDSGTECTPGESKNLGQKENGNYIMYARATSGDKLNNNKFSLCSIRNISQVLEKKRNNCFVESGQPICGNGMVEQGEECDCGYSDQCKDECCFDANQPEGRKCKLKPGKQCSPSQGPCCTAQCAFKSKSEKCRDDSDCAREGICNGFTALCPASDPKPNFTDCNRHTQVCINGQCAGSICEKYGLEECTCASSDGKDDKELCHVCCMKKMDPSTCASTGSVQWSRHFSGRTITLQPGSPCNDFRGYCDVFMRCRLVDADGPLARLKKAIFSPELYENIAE


Columns and labels:
[1] = target: T1, Recombinant human ADAM10 ectodomain; test: ADAM10 quench fluorescent peptide cleavage assay; format: biochemical; details: titrated concentrations
[2] = target: T2, PDI treated TACE ectodomain (Homo sapiens, UniProt P78536); test: Antibody binding after PDI treatment of the TACE ectodomain
T2 construct: Mature recombinant TACE ectodomain (Arg^215-Arg^651) was expressed in baculovirus infected sf9 cells; made in house; host or cells: baculovirus infected Sf9 cells
T2 sequence (P78536 215-651): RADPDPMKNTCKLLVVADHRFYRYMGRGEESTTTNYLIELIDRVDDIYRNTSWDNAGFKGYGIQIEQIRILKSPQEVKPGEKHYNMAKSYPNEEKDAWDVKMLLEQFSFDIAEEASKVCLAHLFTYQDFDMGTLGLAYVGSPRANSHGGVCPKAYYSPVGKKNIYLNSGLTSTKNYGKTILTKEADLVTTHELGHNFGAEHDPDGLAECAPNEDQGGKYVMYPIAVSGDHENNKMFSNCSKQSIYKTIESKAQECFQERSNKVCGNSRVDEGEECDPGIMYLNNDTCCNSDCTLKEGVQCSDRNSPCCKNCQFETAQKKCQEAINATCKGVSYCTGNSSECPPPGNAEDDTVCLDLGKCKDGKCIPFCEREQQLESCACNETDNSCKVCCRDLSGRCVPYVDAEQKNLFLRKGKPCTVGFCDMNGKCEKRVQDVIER

[3] = target: T3, Recombinant human TACE ectodomain (Arg215-Arg651) (Homo sapiens, UniProt P78536); test: Quenched fluorescent peptide cleavage assay, TACE ectodomain; format: biochemical; details: 1 nM TACE ectodomain; read-out: IC50, TACE ectodomain proteolysis, quenched fluorescent peptide
T3 construct: Mature recombinant TACE ectodomain (Arg^215-Arg^651) was expressed in baculovirus infected sf9 cells; made in house; host or cells: baculovirus infected Sf9 cells
T3 sequence (P78536 215-651): as above
Protocol: (§1) Recombinant human TACE catalytic domain and TACE ectodomain were diluted to 1 nM in 50 mM Tris-HCl, 10 mM CaCl2, 0.05% Brij35, 1% DMSO, pH 7.4 and pre-incubated with titrated concentrations of inhibitor for 4-hours at room temperature. Following incubation, each reaction was separated into 200 μL technical quadruplets in a 96-well black Microwell plate (Nunc 237105), and the fluorogenic substrate methoxycoumarinyl acetyl-Lys-Pro-Leu-Gly-Leu-dinitrophenyl diaminopropionyl-Ala-Arg-NH2 (Peptides International SMO-3670-PI) was added to each well (final concentration 1 μM). Every 30 seconds fluorescence was excited at 320 nm and emission recorded at 405 nm in a Tecan Infinite-200 (at 37° C. for 2000 seconds). Individual readings were normalised against a substrate only control and compiled to produce a mean trend for each variable. A linear regression slope for each reaction was calculated in GraphPad Prism (ΔFU sec^−1) and proteolytic activity was expressed as the slope percentage of an untreated control (% ΔFU sec^−1). Final results represent mean values from three separate experiments.
(§2) Purified recombinant scFvs were subjected to an 8-point fluorometric titration ([TACE]=1 nM) (as above) and a 16-point titration ELISA ([TACE]-500 nM). […] Change in Gibb's Free Energy (ΔΔG) was calculated using the equation: ΔΔG=+RT1n(Ala/WT).

[4] = target: T4, Recombinant human TACE catalytic domain (Homo sapiens, UniProt P78536); test: Quenched fluorescent peptide cleavage assay, isolated TACE catalytic domain; format: biochemical; details: 1 nM TACE catalytic domain; read-out: IC50 Cat:WT, isolated catalytic domain, quenched fluorescent peptide
T4 construct: The mature catalytic domain of TACE (Arg^215-Val^477-GlySer-His^6) was prepared using an identical baculovirus system; GlySer-His6 (C); made in house; host or cells: baculovirus system (Sf9)
T4 sequence (P78536 215-477): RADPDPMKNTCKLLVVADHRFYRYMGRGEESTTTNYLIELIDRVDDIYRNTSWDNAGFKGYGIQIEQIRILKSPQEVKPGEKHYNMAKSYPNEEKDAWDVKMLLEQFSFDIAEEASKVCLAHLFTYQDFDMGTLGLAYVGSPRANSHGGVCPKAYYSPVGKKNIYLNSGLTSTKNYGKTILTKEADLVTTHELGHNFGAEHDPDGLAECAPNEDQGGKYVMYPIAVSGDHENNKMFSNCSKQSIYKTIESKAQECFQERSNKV
Protocol: as §1, §2

Row | Molecule | effect on ADAM10 proteolytic activity [1] | immunoreactivity following PDI treatment of the TACE ectodomain [2] | IC50 [3] [nM] | IC50 [4] [nM]
1 | CC(C)(C)[C@H](NC(=O)[C@H](CCCc1ccc(Cl)cc1)CC(=O)NO)C(N)=O [CT1746, reference compound] | rapidly inhibits | – | – | –
2 | D1(A12) scFv: scFv format; VH SEQ ID NO: 7, VL SEQ ID NO: 9 (antibody, listed as Homo sapiens, V domains shown, scFv linker) VH: EVQLVESGGGLVRPGGSLRLSCAASGFTFSSYAMSWVRQAPGKGLEWVSAISGSGGSTYYADSVKGRFTISRDNTKNSLYLQMTSLRADDTAFYYCVKDFGPGYGTGWFDYWGPGTLVTVSA VL: SDIQMTQSPSSLSASVGDRVTITCRASQSISSYLNWYQQKPGKAPKLLIHDASSLQSGVPSRFSGSGSGTDFTLTISSLQPEDFATYYCQQSFSIPLTFGGGTKMDIKR | – | largely resistant to PDI modulation | 0.89 | 2.3
